The text below walks through data of the supplement of paper PMC5998384.

Data set [1] has as its system HeLa Kyoto. The data set can be described thus: melting temperature (median over replicates), in situ; higher = more thermally stable.
Data set [2] concerns HeLa Kyoto. The data set can be described thus: solubility in G1/S (NP-40 vs SDS abundance) (log2 ratio); higher = more soluble. The following applies: cell cycle stage: G1/S.
For data set [3], the system named is HeLa Kyoto. The data set can be described thus: thermal stability score vs G1/S (z-score of summed log2 fold changes over temperatures); higher = more thermally stable than in G1/S.
Data set [4] deals with HeLa Kyoto. In words: solubility change mitosis vs G1/S (difference of NP-40 vs SDS log2 ratios) (log2 ratio difference); higher = more soluble in mitosis.
Where [5] appears, read: cell cycle stage: early G1 (4.5 h after nocodazole release).
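Wherever melting temperature (median over replicates), in situ is given: HeLa Kyoto cells synchronized by double thymidine or nocodazole block, proteins quantified by TMT10plex mass spectrometry, three independent biological replicates.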
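Wherever solubility change mitosis vs G1/S (difference of NP-40 vs SDS log2 ratios) is given: synchronized HeLa Kyoto cells (double thymidine block for G1/S, nocodazole release for mitosis), protein amounts in NP-40 versus SDS lysates quantified by mass spectrometry, three biological replicates.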
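Wherever solubility in G1/S (NP-40 vs SDS abundance) is given: HeLa Kyoto cells arrested at G1/S by double thymidine block, proteins quantified by TMT10plex mass spectrometry in mild NP-40 versus SDS extracts, three biological replicates.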
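Wherever thermal stability score vs G1/S (z-score of summed log2 fold changes over temperatures) is given: synchronized HeLa Kyoto cells, proteins quantified by TMT10plex mass spectrometry, three biological replicates, mitosis taken 0.5 h after nocodazole release, G1/S directly after double thymidine block.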

As for “MAGRLLGKALAAVSLSLALASVTIRSSRCRGIQAFRNSFSSSWFHLNTNVMSGSNGSKENSHNKARTSPYPGSKVERSQVPNEKVGWLVEWQDYKPVEYTAVSVLAGPRWADPQISESNFSPKFNEKDGHVERKSKNGLYEIENGRPRNPAGRTGLVGRGLLGRWGPNHAADPIITRWKRDSSGNKIMHPVSGKHILQFVAIKRKDCGEWAIPGGMVDPGEKISATLKREFGEEALNSLQKTSAEKREIEEKLHKLFSQDHLVIYKGYVDDPRNTDNAWMETEAVNYHDETGEIMDNLMLEAGDDAGKVKWVDINDKLKLYASHSQFIKLVAEKRDAHWSEDSEADCHAL [NUDT9]”, the melting temperature in data set [1] (cell cycle stage: G1/S) is 50.3 °C; in data set [1] (cell cycle stage: mitosis) it was 50.5 °C. For the same substance, in data set [2], the “solubility in G1/S (log2)” value came to 0.41. The thermal stability score is -0.398 in data set [3] (setting [5]) and -0.161 in data set [3] (cell cycle stage: mitosis). In data set [4], the “solubility change mitosis (log2)” value is 0.00145.
On to “MAAAAAAGPSPGSGPGDSPEGPEGEAPERRRKAHGMLKLYYGLSEGEAAGRPAGPDPLDPTDLNGAHFDPEVYLDKLRRECPLAQLMDSETDMVRQIRALDSDMQTLVYENYNKFISATDTIRKMKNDFRKMEDEMDRLATNMAVITDFSARISATLQDRHERITKLAGVHALLRKLQFLFELPSRLTKCVELGAYGQAVRYQGRAQAVLQQYQHLPSFRAIQDDCQVITARLAQQLRQRFREGGSGAPEQAECVELLLALGEPAEELCEEFLAHARGRLEKELRNLEAELGPSPPAPDVLEFTDHGGSGFVGGLCQVAAAYQELFAAQGPAGAEKLAAFARQLGSRYFALVERRLAQEQGGGDNSLLVRALDRFHRRLRAPGALLAAAGLADAATEIVERVARERLGHHLQGLRAAFLGCLTDVRQALAAPRVAGKEGPGLAELLANVASSILSHIKASLAAVHLFTAKEVSFSNKPYFRGEFCSQGVREGLIVGFVHSMCQTAQSFCDSPGEKGGATPPALLLLLSRLCLDYETATISYILTLTDEQFLVQDQFPVTPVSTLCAEARETARRLLTHYVKVQGLVISQMLRKSVETRDWLSTLEPRNVRAVMKRVVEDTTAIDVQVGLLYEEGVRKAQSSDSSKRTFSVYSSSRQQGRYAPSYTPSAPMDTNLLSNIQKLFSERIDVFSPVEFNKVSVLTGIIKISLKTLLECVRLRTFGRFGLQQVQVDCHFLQLYLWRFVADEELVHLLLDEVVASAALRCPDPVPMEPSVVEVICERG [VPS51]”, for which the melting temperature in data set [1] (cell cycle stage: G1/S) and in data set [1] (cell cycle stage: mitosis) was 49.3 °C in each case. Further, in data set [2], the “solubility in G1/S (log2)” value worked out at 0.0503. Besides, the thermal stability score in data set [3] (setting [5]) worked out at 0.245; in data set [3] (cell cycle stage: mitosis), 0.774. Further, the “solubility change mitosis (log2)” value in data set [4] is -0.137.
As to “MEASVILPILKKKLAFLSGGKDRRSGLILTIPLCLEQTNMDELSVTLDYLLSIPSEKCKARGFTVIVDGRKSQWNVVKTVVVMLQNVVPAEVSLVCVVKPDEFWDKKVTHFCFWKEKDRLGFEVILVSANKLTRYIEPCQLTEDFGGSLTYDHMDWLNKRLVFEKFTKESTSLLDELALINNGSDKGNQQEKERSVDLNFLPSVDPETVLQTGHELLSELQQRRFNGSDGGVSWSPMDDELLAQPQVMKLLDSLREQYTRYQEVCRQRSKRTQLEEIQQKVMQVVNWLEGPGSEQLRAQWGIGDSIRASQALQQKHEEIESQHSEWFAVYVELNQQIAALLNAGDEEDLVELKSLQQQLSDVCYRQASQLEFRQNLLQAALEFHGVAQDLSQQLDGLLGMLCVDVAPADGASIQQTLKLLEEKLKSVDVGLQGLREKGQGLLDQISNQASWAYGKDVTIENKENVDHIQGVMEDMQLRKQRCEDMVDVRRLKMLQMVQLFKCEEDAAQAVEWLSELLDALLKTHIRLGDDAQETKVLLEKHRKFVDVAQSTYDYGRQLLQATVVLCQSLRCTSRSSGDTLPRLNRVWKQFTIASEERVHRLEMAIAFHSNAEKILQDCPEEPEAINDEEQFDEIEAVGKSLLDRLTVPVVYPDGTEQYFGSPSDMASTAENIRDRMKLVNLKRQQLRHPEMVTTES [SESTD1]”, the melting temperature in data set [1] (cell cycle stage: mitosis) worked out at 49.5 °C. Also, in data set [2], the “solubility in G1/S (log2)” value amounted to 0.132. Moreover, the thermal stability score in data set [3] (setting [5]) is -0.259; in data set [3] (cell cycle stage: mitosis) it was 0.238. The “solubility change mitosis (log2)” value in data set [4] was -0.126.
Regarding “MSAIQAAWPSGTECIAKYNFHGTAEQDLPFCKGDVLTIVAVTKDPNWYKAKNKVGREGIIPANYVQKREGVKAGTKLSLMPWFHGKITREQAERLLYPPETGLFLVRESTNYPGDYTLCVSCDGKVEHYRIMYHASKLSIDEEVYFENLMQLVEHYTSDADGLCTRLIKPKVMEGTVAAQDEFYRSGWALNMKELKLLQTIGKGEFGDVMLGDYRGNKVAVKCIKNDATAQAFLAEASVMTQLRHSNLVQLLGVIVEEKGGLYIVTEYMAKGSLVDYLRSRGRSVLGGDCLLKFSLDVCEAMEYLEGNNFVHRDLAARNVLVSEDNVAKVSDFGLTKEASSTQDTGKLPVKWTAPEALREKKFSTKSDVWSFGILLWEIYSFGRVPYPRIPLKDVVPRVEKGYKMDAPDGCPPAVYEVMKNCWHLDAAMRPSFLQLREQLEHIKTHELHL [CSK]”, the melting temperature came out at 49.3 °C in data set [1] (cell cycle stage: G1/S) and 49.8 °C in data set [1] (cell cycle stage: mitosis). In data set [2], the “solubility in G1/S (log2)” value stood at 0.0872. The thermal stability score is -0.12 in data set [3] (setting [5]) and 0.74 in data set [3] (cell cycle stage: mitosis). In addition, the “solubility change mitosis (log2)” value in data set [4] was -0.139.
As for “MEDAGGGEETPAPEAPHPPQLAPPEEQGLLFQEETIDLGGDEFGSEENETASEGSSPLADKLNEHMMESVLISDSPNSEGDAGDLGRVRDEAEPGGEGDPGPEPAGTPSPSGEADGDCAPEDAAPSSGGAPRQDAAREVPGSEAARPEQEPPVAEPVPVCTIFSQRAPPASGDGFEPQMVKSPSFGGASEASARTPPQVVQPSPSLSTFFGDTAASHSLASDFFDSFTTSAFISVSNPGAGSPAPASPPPLAVPGTEGRPEPVAMRGPQAAAPPASPEPFAHIQAVFAGSDDPFATALSMSEMDRRNDAWLPGEATRGVLRAVATQQRGAVFVDKENLTMPGLRFDNIQGDAVKDLMLRFLGEKAAAKRQVLNADSVEQSFVGLKQLISCRNWRAAVDLCGRLLTAHGQGYGKSGLLTSHTTDSLQLWFVRLALLVKLGLFQNAEMEFEPFGNLDQPDLYYEYYPHVYPGRRGSMVPFSMRILHAELQQYLGNPQESLDRLHKVKTVCSKILANLEQGLAEDGGMSSVTQEGRQASIRLWRSRLGRVMYSMANCLLLMKDYVLAVEAYHSVIKYYPEQEPQLLSGIGRISLQIGDIKTAEKYFQDVEKVTQKLDGLQGKIMVLMNSAFLHLGQNNFAEAHRFFTEILRMDPRNAVANNNAAVCLLYLGKLKDSLRQLEAMVQQDPRHYLHESVLFNLTTMYELESSRSMQKKQALLEAVAGKEGDSFNTQCLKLA [TRAPPC12]”, the melting temperature in data set [1] (cell cycle stage: G1/S) amounted to 50.1 °C; in data set [1] (cell cycle stage: mitosis) it was 49.2 °C. Further, the “solubility in G1/S (log2)” value in data set [2] is 0.188. In addition, the values for the thermal stability score in data set [3] (setting [5]) and in data set [3] (cell cycle stage: mitosis) were 0.55 and 0.59, respectively. Further, the “solubility change mitosis (log2)” value in data set [4] is -0.258.
On to KIDINS220, for which the melting temperature in data set [1] (cell cycle stage: G1/S) was found to be 52.9 °C; in data set [1] (cell cycle stage: mitosis), 52 °C. In addition, the “solubility in G1/S (log2)” value in data set [2] was -0.21. Also, the thermal stability score in data set [3] (setting [5]) is -0.795; in data set [3] (cell cycle stage: mitosis) it was -1.61. Moreover, the “solubility change mitosis (log2)” value in data set [4] stood at 0.00102.
